This passage reports Kd, koff and kon results from US20190177414A1 (AKESO BIOPHARMA, published 2019).

The assay has as its target T1, CTLA4 antigen (CTLA4 protein obtained by cleaving the CTLA4-mFc fusion protein with TEV protease) (human, UniProt P16410 36-161).
T1 construct: extracellular domain; after cleavage part of the TEV site may remain at the C-terminus; also called CTLA4ECD
T1 sequence (looked up): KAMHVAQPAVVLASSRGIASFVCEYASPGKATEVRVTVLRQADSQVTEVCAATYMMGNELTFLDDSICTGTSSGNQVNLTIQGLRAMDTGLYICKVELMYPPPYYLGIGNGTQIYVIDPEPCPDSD
Put plainly: Octet (ForteBio) BLI; antibody amine-coupled to AR2G sensor, CTLA4 antigen in solution. The method, then:
The dynamic parameters of the antigen—antibody binding were determined using the ForteBio molecular interaction analyzer (Octet). The CTLA4-mFc fusion protein prepared in Example 1 was cleaved using the TEV protease, and the CTLA4 antigen was obtained by purification on a column. […] After equilibration in PBST, the CTLA4 antigen was added for binding. […] Dissociation occurred in PBST.

B1: anti-CTLA4 antibody 4G10 (antibody, V domains shown)
VH: QVKLQESGPELVKPGASMKISCKASGYSFTGYTMNWVKQSHGKNLEWIGLINPYNNITNYNQKFMGKATFTVDKSSSTAYMELLRLTSEDSGVYFCARLDYRSYWGQGTLVTVSA
VL: QAVVTQESALTTSPGETVTLTCRSSTGAVTTSNFANWVQEKPDHLFTSLIGGTNNRAPGVPARFSGSLIGDKAALTITGAQTEDEAIYFCALWYSNHWVFGGGTKLTVLG
notes: Mouse monoclonal antibody purified from hybridoma supernatant; also called monoclonal antibody secreted by hybridoma cell line LT002 (CTLA4-4G10)
Take B1: the Kd stood at 0.301 nM, the koff turned out to be 0.000114 s⁻¹ and the kon was determined as 378000 M⁻¹ s⁻¹.

The term Kd denotes the constant that tells how readily two partners part at equilibrium. The koff is the rate constant with which the complex falls apart. Higher therefore signals a short-lived complex. A word on the kon: it is the rate constant with which the complex forms.
